Values of other authors, collected in publication PMC5158201.
pKd: −log10 of the molar value.

Target: decoy IL-1 receptor (IL-1RII) (Homo sapiens) (UniProt P27930)
Chain of UniProt P27930 (P27930 14-398): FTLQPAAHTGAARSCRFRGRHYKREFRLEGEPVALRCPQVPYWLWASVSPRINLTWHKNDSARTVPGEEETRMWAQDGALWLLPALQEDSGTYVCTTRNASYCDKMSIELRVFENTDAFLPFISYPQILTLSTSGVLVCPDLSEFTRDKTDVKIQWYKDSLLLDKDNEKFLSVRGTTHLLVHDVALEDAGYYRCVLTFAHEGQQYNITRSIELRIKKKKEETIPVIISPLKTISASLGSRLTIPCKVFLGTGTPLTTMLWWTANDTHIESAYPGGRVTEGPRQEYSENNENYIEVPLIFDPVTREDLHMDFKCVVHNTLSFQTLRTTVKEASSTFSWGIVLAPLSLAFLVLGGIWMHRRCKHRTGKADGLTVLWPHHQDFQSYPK

- pKd: 10.52
Substance: IL-1α (from UniProt P01583)
